Laboratory results published in patent US20210380679A1 (INHIBRX BIOSCIENCES, published 2021).

B1: cx4899 (bispecific antibody)
chain 1: EVQLVESGGGEVQPGGSLRLSCGPSEIITSDKSVGWWRQAPGKQRNLVAGISNVGSTNYAQSVKGRFTISRDNAKNTLYLQMSSLRAEDTAVYYCYARDFENEYWGQGTLVTVKPDKTHTCPPCPAPGGPSVFLFPPKPKDTLMISRTPEVTCVVVDVSHEDPEVKFNWYVDGVEVHNAKTKPREEQYNSTYRVVSVLTVLHQDWLNGKEYKCKVSNKALPAPIEKTISKAKGQPREPQVYTLPPCRDELTKNQVSLWCLVKGFYPSDIAVEWESNGQPENNYKTTPPVLDSDGSFFLYSKLTVDKSRWQQGNVFSCSVMHEALHNHYTQKSLSLSPTGGGGGSGGGGGSGGGGGSEVQLVESGGGLVQPGGSLRLSCAASGFTFNTYAMNWVRQAPGKCLEWVARIRSKYNNYATYYADSVKGRFTISRDDAKNTLYLQMSSLRAEDTAVYYCVRHGNFGNSYVSWFAYWGQGTLVTVKPEVQLVESGGGEVQPGGSLRLSCAASGSIFSINAMGWYRQAPGKQRELVAGFTGDTNTIYAESVKGRFTISRDNAKNTVYLQMSSLRAEDTAVYYCAADVQLFSRDYEFYWGQGTLVTVKP
chain 2: DKTHTCPPCPAPGGPSVFLFPPKPKDTLMISRTPEVTCVVVDVSHEDPEVKFNWYVDGVEVHNAKTKPREEQYNSTYRVVSVLTVLHQDWLNGKEYKCKVSNKALPAPIEKTISKAKGQPREPQVCTLPPSRDELTKNQVSLSCAVKGFYPSDIAVEWESNGQPENNYKTTPPVLDSDGSFFLVSKLTVDKSRWQQGNVFSCSVMHEALHNRYTQKSLSLSPTGGGGGSGGGGGSGGGGGSQAVVTQEPSLTVSPGGTVTLTCGSSTGAVTTSNYANWVQQKPGQAFRGLIGGTNKRAPGVPARFSGSLLGGKAALTISGAQPEDEADYYCALWYSNHWVFGCGTKLEIK
B2: 6A1 (Fc fusion)
VHH: QVQLVQSGGGLVQAGGSLRLSCAASGFSLDDYTIGWFRQAPGKEREGVSCISSSGGSTVHADSVKGRFTISRDNAKNTVWLQMNSLKPEDTAVYYCATWCGVATMTEDLPFDYWGQGTLVTVKP
notes: tested as VHH-human Fc; Fc not specified
B3: cx5352 (bispecific antibody)
chain 1: EVQLVESGGGEVQPGGSLRLSCAASGSIFSINAMGWYRQAPGKQRELVAGFTGDTNTIYAESVKGRFTISRDNAKNTVYLQMSSLRAEDTAVYYCAADVQLFSRDYEFYWGQGTLVTVKPDKTHTCPPCPAPGGPSVFLFPPKPKDTLMISRTPEVTCVVVDVSHEDPEVKFNWYVDGVEVHNAKTKPREEQYNSTYRVVSVLTVLHQDWLNGKEYKCKVSNKALPAPIEKTISKAKGQPREPQVYTLPPCRDELTKNQVSLWCLVKGFYPSDIAVEWESNGQPENNYKTTPPVLDSDGSFFLYSKLTVDKSRWQQGNVFSCSVMHEALHNHYTQKSLSLSPTGGGGGSGGGGGSGGGGGSEVQLVESGGGLVQPGGSLRLSCAASGFTFNTYAMNWVRQAPGKCLEWVARIRSKYNNYATYYADSVKGRFTISRDDAKNTLYLQMSSLRAEDTAVYYCVRHGNFGNSYVSWFAYWGQGTLVTVKPEVQLVESGGGEVQPGGSLRLSCGPSEIITSDKSMGWVRQAPGKQRNLVAGISNVGSTNYAQSVKGRFTISRDNAKNTVYLQMSSLRAEDTAVYYCYARDFENEYWGQGTLVTVKP
chain 2: DKTHTCPPCPAPGGPSVFLFPPKPKDTLMISRTPEVTCVVVDVSHEDPEVKFNWYVDGVEVHNAKTKPREEQYNSTYRVVSVLTVLHQDWLNGKEYKCKVSNKALPAPIEKTISKAKGQPREPQVCTLPPSRDELTKNQVSLSCAVKGFYPSDIAVEWESNGQPENNYKTTPPVLDSDGSFFLVSKLTVDKSRWQQGNVFSCSVMHEALHNRYTQKSLSLSPTGGGGGSGGGGGSGGGGGSQAVVTQEPSLTVSPGGTVTLTCGSSTGAVTTSNYANWVQQKPGQAFRGLIGGTNKRAPGVPARFSGSLLGGKAALTISGAQPEDEADYYCALWYSNHWVFGCGTKLEIKEVQLLESGGGEVQPGGSLRLSCAASGFSFSINAMGWYRQAPGKRREFVAAIESGRNTVYAESVKGRFTISRDNAKNTVYLQMSSLRAEDTAVYYCGLLKGNRVVSPSVAYWGQGTLVTVKP
B4: cx5801 (bispecific antibody)
chain 1: DKTHTCPPCPAPGGPSVFLFPPKPKDTLMISRTPEVTCVVVDVSHEDPEVKFNWYVDGVEVHNAKTKPREEQYNSTYRVVSVLTVLHQDWLNGKEYKCKVSNKALPAPIEKTISKAKGQPREPQVYTLPPCRDELTKNQVSLWCLVKGFYPSDIAVEWESNGQPENNYKTTPPVLDSDGSFFLYSKLTVDKSRWQQGNVFSCSVMHEALHNHYTQKSLSLSPTGGGGGSGGGGGSGGGGGSEVQLVESGGGLVQPGGSLRLSCAASGFTFNTYAMNWVRQAPGKCLEWVARIRSKYNNYATYYADSVKGRFTISRDDAKNTLYLQMSSLRAEDTAVYYCVRHGNFGNSYVSWFAYWGQGTLVTVKPEVQLVESGGGEVQPGGSLRLSCGPSEIITSDKSMGWVRQAPGKQRNLVAGISNVGSTNYAQSVKGRFTISRDNAKNTVYLQMSSLRAEDTAVYYCYARDFENEYWGQGTLVTVKP
chain 2: B3 chain 2
notes: monovalent for DLL3; junction linkers not placed
B5: cx4895 (bispecific antibody)
chain 1: EVQLVQSGGGLVQAGGSLRLSCAASGSILSINAMGWYRQPPGKQREMVAGFTGDGNTIYADSVKGRFTISRDNAKNTVYLQMNSLKPEDTAVYYCAADVQLFSRDYEFYWGQGTQVTVKPDKTHTCPPCPAPGGPSVFLFPPKPKDTLMISRTPEVTCVVVDVSHEDPEVKFNWYVDGVEVHNAKTKPREEQYNSTYRVVSVLTVLHQDWLNGKEYKCKVSNKALPAPIEKTISKAKGQPREPQVYTLPPCRDELTKNQVSLWCLVKGFYPSDIAVEWESNGQPENNYKTTPPVLDSDGSFFLYSKLTVDKSRWQQGNVFSCSVMHEALHNHYTQKSLSLSPTGGGGGSGGGGGSGGGGGSEVQLVESGGGLVQPGGSLRLSCAASGFTFNTYAMNWVRQAPGKCLEWVARIRSKYNNYATYYADSVKGRFTISRDDAKNTLYLQMSSLRAEDTAVYYCVRHGNFGNSYVSWFAYWGQGTLVTVKPEVQLQESGGGLVQAGGSLRLSCGPSEIITSDKSVGWWRQAPGKQRNLVAGISNVGSTNYAQSVKGRFTISRDNAKNTLFLQMNSLKPEDTAVYYCYARDFENEYWGRGTQVTVKP
chain 2: B3 chain 2
notes: as printed the same parts as cx4720
B6: cx5800 (bispecific antibody)
chain 1: EVQLVESGGGEVQPGGSLRLSCAASGSIFSINAMGWYRQAPGKQRELVAGFTGDTNTIYAESVKGRFTISRDNAKNTVYLQMSSLRAEDTAVYYCAADVQLFSRDYEFYWGQGTLVTVKPDKTHTCPPCPAPGGPSVFLFPPKPKDTLMISRTPEVTCVVVDVSHEDPEVKFNWYVDGVEVHNAKTKPREEQYNSTYRVVSVLTVLHQDWLNGKEYKCKVSNKALPAPIEKTISKAKGQPREPQVYTLPPCRDELTKNQVSLWCLVKGFYPSDIAVEWESNGQPENNYKTTPPVLDSDGSFFLYSKLTVDKSRWQQGNVFSCSVMHEALHNHYTQKSLSLSPTGGGGGSGGGGGSGGGGGSEVQLVESGGGLVQPGGSLRLSCAASGFTFNTYAMNWVRQAPGKCLEWVARIRSKYNNYATYYADSVKGRFTISRDDAKNTLYLQMSSLRAEDTAVYYCVRHGNFGNSYVSWFAYWGQGTLVTVKP
chain 2: B3 chain 2
notes: as for B4

Legend:
[1] = molecular target: T1, CD3 on the surface of T cells (human, UniProt P07766 23-207); test: flow cytometry, primary human T cells
T1 construct: whole, on cells; multi-chain complex; also called CD3 epsilon
T1 sequence (P07766 23-207): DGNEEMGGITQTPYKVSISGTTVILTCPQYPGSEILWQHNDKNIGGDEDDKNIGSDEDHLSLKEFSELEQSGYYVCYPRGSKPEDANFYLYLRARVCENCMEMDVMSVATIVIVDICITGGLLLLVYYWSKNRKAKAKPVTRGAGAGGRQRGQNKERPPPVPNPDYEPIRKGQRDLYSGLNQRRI
Experimental: (§1) Binding of exemplary DLL3-targeting constrained CD3 engaging constructs of the disclosure, referred to herein as cx4720, cx3715, cx4422, cx3708, cx4052, cx3985, cx4059, cx4087, cx4088, cx4895, cx3991, cx3711, cx4887, cx4896, cx4899, cx4406, cx3707, cx3710, cx4888 and cx4890, to CD3 on the surface of primary T cells was assessed via flow cytometry (SONY SA3800 spectral analyzer) using T-cell that were negatively enriched from PBMCs isolated from healthy human donor leukopaks. Representative DLL3-targeting constrained CD3 engaging constructs were assessed for binding to T cells and DLL3 expressing cells (SHP-77). Bound cx4720, cx3715, cx4422, cx3708, cx4052, cx3985, cx4059, cx4087, cx4088, cx4895, cx3991, cx3711, cx4887, cx4896, cx4899, cx4406, cx3707, cx3710, cx4888 and cx4890 was detected with fluorophore-conjugated secondary antibodies specific for the human Fc and binding was measured by flow cytometry. Cells incubated with secondary antibody only served as negative controls.
(§2) Table E4 summarizes the affinity of exemplary molecules for DLL3 or CD3, as determined from flow cytometry, in these studies.

[2] = molecular target: T2, human DLL3 (Delta-like ligand 3) (human, UniProt Q9NYJ7 27-618); test: flow cytometry, SHP-77 cells
T2 construct: endogenous on SHP-77 cells; also called cell-surface DLL3
T2 sequence: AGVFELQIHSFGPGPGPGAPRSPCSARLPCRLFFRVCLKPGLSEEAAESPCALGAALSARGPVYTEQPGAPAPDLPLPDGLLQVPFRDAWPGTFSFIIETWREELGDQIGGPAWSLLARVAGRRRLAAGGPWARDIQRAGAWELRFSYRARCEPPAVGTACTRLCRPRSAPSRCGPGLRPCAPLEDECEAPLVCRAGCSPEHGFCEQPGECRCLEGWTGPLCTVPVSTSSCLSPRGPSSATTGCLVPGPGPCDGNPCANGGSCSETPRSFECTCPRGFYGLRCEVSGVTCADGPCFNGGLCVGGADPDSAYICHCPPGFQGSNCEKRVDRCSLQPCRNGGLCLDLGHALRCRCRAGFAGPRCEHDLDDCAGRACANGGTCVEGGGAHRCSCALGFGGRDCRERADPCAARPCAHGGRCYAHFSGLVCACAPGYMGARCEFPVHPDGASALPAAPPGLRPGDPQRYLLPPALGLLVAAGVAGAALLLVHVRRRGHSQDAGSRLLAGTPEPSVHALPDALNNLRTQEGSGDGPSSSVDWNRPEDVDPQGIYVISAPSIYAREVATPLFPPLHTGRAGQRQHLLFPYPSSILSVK
Experimental: as §1, §2

[3] = molecular target: T2, human DLL3 (Delta-like ligand 3); test: flow cytometry of secreted sdAb-Fc on SHP-77 cells
[4] = molecular target: T2, human DLL3 (Delta-like ligand 3); test: flow cytometry, construct titrated on SHP-77 cells (DLL3 positive), fluorophore-conjugated anti-human IgG Fc secondary
Experimental: (§3) Binding of exemplary multispecific polypeptide constructs of the disclosure containing an antigen-binding domain directed against DLL3 to CD3 on the surface of primary T cells and to DLL3 expressing cells (SHP-77) was assessed by flow cytometry. […] These binding assays were conducted by flow cytometry, wherein bound constructs were detected using a fluorophore-conjugated anti-human IgG Fc secondary antibody.

[5] = molecular target: T1, CD3 on the surface of T cells; test: flow cytometry, construct titrated on isolated primary T cells, fluorophore-conjugated anti-human IgG Fc secondary
Experimental: as §3

Row | Binder | Kd [1] | Kd [2] | binding result [3] | binding result [4] | binding result [5]
1 | B1 | > 200 nM | 0.397 nM |  |  | 
2 | B2 |  |  | binds |  | 
3 | B3 |  |  |  | binds | no binding (tested: about 67 nM)
4 | B4 |  |  |  | binds | no binding (tested: about 67 nM)
5 | B5 | > 200 nM | 0.065 nM |  |  | 
6 | B6 |  |  |  | binds | no binding (tested: about 67 nM)
